The text below walks through data of article doi:10.1101/2024.02.16.579611 (bioRxiv, 2024).

Series [1] concerns the target T1, KorB (wild type), C-terminally His-tagged (plasmid RK2, UniProt P07674 1-358).
T1 sequence: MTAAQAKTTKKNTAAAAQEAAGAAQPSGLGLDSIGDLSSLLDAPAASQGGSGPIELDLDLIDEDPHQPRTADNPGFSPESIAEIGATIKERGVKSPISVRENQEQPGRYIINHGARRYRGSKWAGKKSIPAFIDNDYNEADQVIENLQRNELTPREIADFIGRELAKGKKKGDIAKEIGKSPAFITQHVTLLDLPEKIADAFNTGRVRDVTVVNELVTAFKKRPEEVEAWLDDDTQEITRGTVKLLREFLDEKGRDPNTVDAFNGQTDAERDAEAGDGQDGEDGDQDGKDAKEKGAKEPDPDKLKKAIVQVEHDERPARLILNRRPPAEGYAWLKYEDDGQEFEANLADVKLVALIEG
In words: ITC. Background: ITC needs no label: the signal is the heat of the interaction.

The series “crystal structure” deals with the molecule itself. As to the kind of experiment: crystal structure.

B1: KorA (wild type), C-terminally His-tagged (natural protein)
chain: MKKRLTESQFQEAIQGLEVGQQTIEIARGVLVDGKPQATFATSLGLTRGAVSQAVHRVWAAFEDKNLPEGYARVTAVLPEHQAYIVRKWEADAKKKQETKR
The term Kd denotes a measure of binding affinity in units of concentration. A lower Kd goes with tighter binding. On to B1, for which the Kd in series [1] was determined as 4.2 ± 0.5 µM. Also, in “crystal structure”, the binding result is listed as “binds”.
